Data reported in the nanobody polyreactivity screen of Harvey et al. (2022).

Test: yeast display, Sf9 membrane polyspecificity reagent, FACS + sequencing; frameworks hold sequencing errors
Procedure, shortened: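 Galactose-induced (36–48 hours) yeast carrying a synthetic nanobody display library were exposed to 10% biotinylated, detergent-solubilized Sf9 membrane reagent at 4 °C for 1 hour. FACS followed streptavidin microbead enrichment, using low and high (top ~1%) gates for expression (anti-HA) and reagent binding (streptavidin). Colony PCR, MiSeq 2 × 250 sequencing and CDR-length filtering followed. Labels for polyreactivity reflect the gate of origin.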

Sequence | polyreactivity (PSR sort gate)
QVQLVESGGGLVQAGGILRLSWAASGRTFRYYAMGWYRQAPGKDREFVAAISWSGGSTYYADSVKGRFTISRDNAKNTVYLQMNSLKPEDTAVFYCAAESIYTWGIRGAYWGQGTQVTVSS | high polyreactivity
QVQLVESGGGLVQAGGSLRLSCAASGLSFLYAMGWYRHAPGKERELVAAISNGGSTYYADSVKGRFTISRDNAKNTDYLQMNSLKPEDTAVYYCAAAVTGSYASDYWGQGTQVTVSS | high polyreactivity
QVQLVESGGGLVQAGGSLRLSCADSGRIFHTYAMGWYRHAPGKERELVAAISKGGSGTYYADSVKGRFTISRDNAKNTVYLQRNSLKPEDTAVYYCAADLTYHYPRYITYEYWGQRTQVTVSS | low polyreactivity
QVQLVESGGGLVQAGGSLRLSCAASGSFINRYAMGWYRQAPGKERELVAAITQSGGRTYYADSVKGRFTISRDNAKNTVYLQMNSLKPEDTAVYYCNAVRWYLYDYWGQGTQVTVSS | high polyreactivity
QVQLVESGGGLVQAGGSLRLSCAASGIFYRNAMGWYRQAPGKERELVAAISWSGGSTYYADSVKGRFTISRDNAKNSVYLQMNSLKPEDTAFYYCAAVGGRYPSNVVGYYYWGQGTQVTVSS | high polyreactivity
QVQLVESGGGLVQAGGSLRLSCAASGFIFDTYAMGWYRQAPGKERELVARINYSGGSTRYADSVKGRFTISRDNAKNTVYLQMNSLKPEDTAVYYCAAREFSYGFYYWGQGTQVTVSS | high polyreactivity
QVQLVESGGGLLQAGGSLRLSCAASGSTFYFYARGWYRQAPGKERELVAAITGSGGSTYYAVYVKGRFTISRDNSRNSVYLQMKSVKPEDTAVYYCAAGWWYYVHMDYWGQGTQVTVSS | high polyreactivity
QVQLVESGGGLVQAGGSLRLSCAASGRIFALYAMGWYRQAPGKERELVASINGSSGSTYYADSVKGRFTISRDTAKNTVYLQMNSLKPEDTAVYYCAKKYYGVKFYWGQGTQVTVSS | low polyreactivity
QVQLVESGGGLVQAGVSLRLSCAASGTFYYAMGWYRQAPGKEREFVAAISWRGGTTYYADSVKGRFTISRDNAKNTVYLQMNSLKPEDTAVYYCATAPYVTSRRYGPYEYWGQGTQVTVSS | low polyreactivity
QVQLVESGGGLVQAGGSLRLSCAASGFTFRWYTMGWYRQAPGKERELVASIRYGGGSTYYADSVKGRFTISRDNAKNTVYLQMNSLKPEDTAVYYCAAESAWTSQYDYWGVGTQVTVSS | high polyreactivity
QVHLVESGGGLVQAGGSLRLSCAASGRIFKKYAMGWYRQAPGKESELVATISSGGSTYYADSVKGRFTISRDNAKNTVYLQMNSLNPEDTAVYYCARREYVRRDYFVTTYDYWGQGTQVTVSS | low polyreactivity
QVQLVESGGGLVQAGGSLRLSCAASGSTFNEYTMGWYRQAPGKERELVAAIRATDGSTYYADSVKGRFTISRDNAKNTVYLQMNSLKPEDTAVYYCAADYYWNDYWGQGTQVTVSS | low polyreactivity
QVQLVESGGGLVQAGGSLRLTCAASGFTFPYYAMGWYRQAPGKERELVAAIDWTGGSTYYADSVKGRFTISRDNAKNTVYLQMNSLKPEDTAVYYCNRELTSPRRWHVSRAYDYWGQGTQVTVSS | low polyreactivity
QVQLVESGGGLVQAGGSLRLSCAASGFTFHYYAMGWYRQAPGKEWELVAAITKSGGRTSYADSVKGRFTISRDNAKNTVYLQMNSLKPEDTAVYYCAAARYRARIGNDYWGQGTQVTVSS | low polyreactivity
QVQLVESGGGLVQAGGSLRLSCAASGFIFKTYAMGWYRQAPGKERELVAAITGTGTSTYYADSVKGRFTISRDNAKNTVYLQMNSLKTEDTAVYYCAAEFGGRSYYPRHEYWGQGTQVTVSS | low polyreactivity
QVQLVESGGGLVQAGGSLRLSCAASGLTLQPYAMGWSRQAPRNERELVAAITSGGSTYYADSVKGRFTISRDNAKNTVYLQMNSLKPEDTAVYYCAATVSYDFGYVAVSYDYWGQGTQVTVSS | low polyreactivity
QVQLVESGGGLVQAGRSLRLSCAASGFIFWSNTKGWYRQAPGKERELVAAISYSGARTYYADSVKGRFTISRDNAKNTVYLLMNSLKPEDTAVYDCAAYLWGTHDRMDYWGQGTQVTVSS | high polyreactivity
QVQLVESGGGLVQAGGSLRLSCAASGSIFKLNAMGWYRQAPGKERELVAAITFSDGSTNYADSVKGRFTISRDNAKNTVYLQMNSLKPEDTAVYYCAAEFYYRTQWYYYWGQGTQVTVSS | high polyreactivity
QVQLVESGGGLVQAGGSLRLSCAASGYIFYNAMGSYRQAPGKERELVAAISSSGGTTYADSVKGRFTISRDNAKNTVYLQMNSLKPEDTAVYYCAARSEFYWGWEYITYDYWGQGTQVTVSS | low polyreactivity
QVQLVESGGGLVQAGGSLRLSCAASGFTFWQYAMGWYRQAPGKERELVAAITRDVGSTYYADSVKGRFTISRDNAKNTVYLQMNSLKPEDTAVYYCAKLFGGTYYEYDYWGQGTHVTVSS | low polyreactivity
QVQLVESGGGLVQAGGSLRLSCAASGSIFKNYAMGWSRQSPGKERELVASITTGASTNYADSVKGRFTISRDNAKNTVYLQMNSLKPEDTAVYYCNADRYYSHYSYYYWGQGTQVTVSS | high polyreactivity
QVQLVESGGGLVQAGGSLRLSCAASGRIFSWYAMGWYRQAPGKERELVAAISWRGGSTYYADSVKGRFTISRDNAKNTVYLQMNSLKPEDTAVYYCIGGPGGYDYWGHGTQVTVSS | low polyreactivity
